How the values were obtained:
rFVIII [1] = target: T1, rFVIII (Homo sapiens, UniProt P00451); assay: column format binding assay, rFVIII mass per fraction by sandwich capture ELISA for the light chain; conditions: for 0.5M CaCl2 ng / 0.5M CaCl2 % total / 2% acetic acid % total / 2% acetic acid ng / Flow through % total / Total ng / Flow through ng: Table 5; for Flow through ng: 10,000 ng rFVIII in 1:10 PPF injected, 5° C.; for ELISA results % total: Table 9, 0.5M CaCl2 fraction
Protocol: (§1) Immunoassay on rFVIII using a sandwich capture ELISA for the light chain and activity assay using a chromogenic substrate (COATEST Factor VIII kit from diaPharma, Franklin, Ohio) were performed on a BIOMEK® automated liquid handling system from Beckman Instruments (Brea, Calif.). The monoclonal antibody for rFVIII light chain (known as C7F7), the ELISA assay standard (lot A70K019), and the control for the activity assay (lot A70A001 @ 140 IU/mL) were from the Bayer Corporation (Berkeley, Calif.). The standard for the activity assay was at 11.2 IU/mL (Bayer, Clayton, N.C.), calibrated against the MEGA 1 standard, which is a working standard used by American manufacturers for measuring factor VIII activity (21).
(§2) Additional confirmatory binding assay and performance of the discovered binding peptides in terms of total rFVIII and activity recovery was performed in a column chromatographic format on a microbore HPLC. The resins were packed into 0.4×5 cm columns (Thomson, Springfield, Va.) and tested on the MICHROM HPLC system (Michrom BioResources, Auburn, Calif.). The elution program for the trials utilized the following method. The column was pre-equilibrated with equilibration buffer (as above). A 1 mL aliquot of 1:10 PPF followed by 1 mL of rFVIII (10,000 ng) in 1:10 PPF were injected and allowed sufficient time to flow through the column using equilibration buffer. The column was then washed with step elutions of 0.5 M and 1.0 M CaCl2 in equilibration buffer. The column was exposed to equilibration buffer. Remaining protein was eluted with 2% by volume glacial acetic acid in water. Columns were kept at 5° C. during the chromatographic runs. For each 1 mL injection (equilibration buffer, 1:10 PPF and 10,000 ng rFVIII in 1:10 PPF), the chromatographic cycle was run for 45 minutes (injection, flow through, 0.5 M CaCl2, 1.0 M CaCl2, equilibration buffer, 2% acetic acid, equilibration buffer).
(§3) A Gilson FC204 fraction collector at the HPLC outlet collected individual eluates for further analysis. Each collection tube had 100 μL hSA added to it to stabilize the rFVIII. Fractions collected from the 2% acetic acid eluates were neutralized with 2 M Tris, pH 10.5 to bring the pH to neutrality. The fractions were analyzed for total protein by the integration of the absorbance at 280 nm, for rFVIII by immunoassay (sandwich capture ELISA), and for rFVIII activity by a chromogenic substrate assay.
Tables 5 and 6 present the results from the additional confirmatory binding assays using the column format. The chromatography method was run by injecting the samples at a flow rate of 865 μL/min (413 cm/hr). In order to provide a 10 minute residence time of sample in the column the flow was decreased to 17 μL/min (10 cm/hr) upon injection.
Following the incubation, the flow was set at 865 μL/min (413 cm/hr) for the step clutions of 0.5 M CaCl2, 1.0 M CaCl2, and 2% acetic acid. Results are expressed in terms of the total mass of rFVIII in each fraction, as determined by the sandwich capture ELISA assay for the rFVIII light chain. […] A control using a non-binding peptide sequence (IGF) is also shown for comparison--in this case, 95% of the rFVIII loaded to the column was collected in the flow through fraction. Additional controls with no

rFVIII [2] = target: T1, rFVIII; assay: rFVIII activity recovery from peptide columns by chromogenic substrate assay (COATEST); assay type: biochemical; conditions: for 0.5M CaCl2 IU / 2% acetic acid % total / 2% acetic acid IU / Flow through % total / Total IU / 0.5M CaCl2 % total / Flow through IU: Table 7; for 0.5M CaCl2 % total: activity recovery; for Flow through IU: rFVIII activity in fraction; for Activity results % total: Table 9, 0.5M CaCl2 fraction
Protocol: as §1, §2, §3
Tables 7 and 8 list the sequences for which activity recovery was determined by a chromogenic substrate assay (COASTEST kit, diaPharma, Franklin, Ohio). Chromatographc conditions are the same as described above for the results from Tables 5 and 6. It can be

rFVIII [3] = target: T1, rFVIII; assay: confirmatory binding assay in filtration plate format using 14C-rFVIII; conditions: Table 3; for Total dpm / beads % total / beads dpm: 14C-rFVIII 20 nM; for 0.5M CaCl2 % total / 2% acetic acid % total / 2% acetic acid dpm / 0.5M CaCl2 dpm: 14C-rFVIII 20 nM in PPF, 5 mg beads; for 0.5M CaCl2 dpm: 3.0 × 10^15 DPM/mole, 5° C.; for beads % total / beads dpm: remaining on beads after washes
Protocol: Confirmatory binding assays were performed in a filtration plate format using individual peptide sequences synthesized directly onto the TOYOPEARL AF amino 650 M resin, at a final substitution density of 0.1 mmole/g resin. A slurry of each individual peptide sequence was prepared using deionized water. A 100 μL volume of beads (corresponding to 5 mg) was loaded into each well of the filtration plate (MULTISCREEN Assay System, Millipore, Bedford, Mass.), in triplicate for each peptide sequence. Beads were washed with 20% ethanol and incubated overnight with equilibration buffer (20 mM imidazole, 10 mM
CaCl2, 0.105 M NaCl, pH 6.9). A 100 μL aliquot of ^14 C-rFVIII diluted in neat PPF to a final concentration of 20-30 nM was loaded into each well and incubated for 1 hour at 5° C. Filtrate (unbound ^14 C-rFVIII) was collected into a microtiter plate and transferred to liquid scintillation vials for dpm counting. Beads were washed sequentially with: 100 μL of equilibration buffer for 15 minutes, 200 μL of 0.5 M CaCl2 (in equilibration buffer), 200 μL of 1.0 M CaCl2 (in equilibration buffer), and 200 uL of 2% by volume glacial acetic acid in water, for 1 hour each at 5° C. Scintillation counting on the unbound ^14 C-rFVIII (plus equilibration buffer wash), salt and acid washes, as well as on the beads was then performed and the overall mass balance calculated.
Beads presenting the appropriate peptide sequence on the surface were placed in the filtration plate wells and incubated sequentially with equilibration buffer, ^14 C-rFVIII in PPF, equilibration buffer, 0.5 M CaCl2 wash, 1.0 M CaCl2 wash and 2% acetic acid wash. After each incubation, filtrate was collected in microtiter plates, and dpm counted on each
In Table 3, the ^14 C-rFVIII was loaded at 20 nM (in PPF) and the radiolabeling yield was at 3.0×10^15 dpm/mole. In Table 4, the ^14 C-rFVIII was loaded at 30 nM (in PPF) and the radiolabeling yield was at 5.0×10^15 dpm/mole.

T1 sequence (P00451 20-2351): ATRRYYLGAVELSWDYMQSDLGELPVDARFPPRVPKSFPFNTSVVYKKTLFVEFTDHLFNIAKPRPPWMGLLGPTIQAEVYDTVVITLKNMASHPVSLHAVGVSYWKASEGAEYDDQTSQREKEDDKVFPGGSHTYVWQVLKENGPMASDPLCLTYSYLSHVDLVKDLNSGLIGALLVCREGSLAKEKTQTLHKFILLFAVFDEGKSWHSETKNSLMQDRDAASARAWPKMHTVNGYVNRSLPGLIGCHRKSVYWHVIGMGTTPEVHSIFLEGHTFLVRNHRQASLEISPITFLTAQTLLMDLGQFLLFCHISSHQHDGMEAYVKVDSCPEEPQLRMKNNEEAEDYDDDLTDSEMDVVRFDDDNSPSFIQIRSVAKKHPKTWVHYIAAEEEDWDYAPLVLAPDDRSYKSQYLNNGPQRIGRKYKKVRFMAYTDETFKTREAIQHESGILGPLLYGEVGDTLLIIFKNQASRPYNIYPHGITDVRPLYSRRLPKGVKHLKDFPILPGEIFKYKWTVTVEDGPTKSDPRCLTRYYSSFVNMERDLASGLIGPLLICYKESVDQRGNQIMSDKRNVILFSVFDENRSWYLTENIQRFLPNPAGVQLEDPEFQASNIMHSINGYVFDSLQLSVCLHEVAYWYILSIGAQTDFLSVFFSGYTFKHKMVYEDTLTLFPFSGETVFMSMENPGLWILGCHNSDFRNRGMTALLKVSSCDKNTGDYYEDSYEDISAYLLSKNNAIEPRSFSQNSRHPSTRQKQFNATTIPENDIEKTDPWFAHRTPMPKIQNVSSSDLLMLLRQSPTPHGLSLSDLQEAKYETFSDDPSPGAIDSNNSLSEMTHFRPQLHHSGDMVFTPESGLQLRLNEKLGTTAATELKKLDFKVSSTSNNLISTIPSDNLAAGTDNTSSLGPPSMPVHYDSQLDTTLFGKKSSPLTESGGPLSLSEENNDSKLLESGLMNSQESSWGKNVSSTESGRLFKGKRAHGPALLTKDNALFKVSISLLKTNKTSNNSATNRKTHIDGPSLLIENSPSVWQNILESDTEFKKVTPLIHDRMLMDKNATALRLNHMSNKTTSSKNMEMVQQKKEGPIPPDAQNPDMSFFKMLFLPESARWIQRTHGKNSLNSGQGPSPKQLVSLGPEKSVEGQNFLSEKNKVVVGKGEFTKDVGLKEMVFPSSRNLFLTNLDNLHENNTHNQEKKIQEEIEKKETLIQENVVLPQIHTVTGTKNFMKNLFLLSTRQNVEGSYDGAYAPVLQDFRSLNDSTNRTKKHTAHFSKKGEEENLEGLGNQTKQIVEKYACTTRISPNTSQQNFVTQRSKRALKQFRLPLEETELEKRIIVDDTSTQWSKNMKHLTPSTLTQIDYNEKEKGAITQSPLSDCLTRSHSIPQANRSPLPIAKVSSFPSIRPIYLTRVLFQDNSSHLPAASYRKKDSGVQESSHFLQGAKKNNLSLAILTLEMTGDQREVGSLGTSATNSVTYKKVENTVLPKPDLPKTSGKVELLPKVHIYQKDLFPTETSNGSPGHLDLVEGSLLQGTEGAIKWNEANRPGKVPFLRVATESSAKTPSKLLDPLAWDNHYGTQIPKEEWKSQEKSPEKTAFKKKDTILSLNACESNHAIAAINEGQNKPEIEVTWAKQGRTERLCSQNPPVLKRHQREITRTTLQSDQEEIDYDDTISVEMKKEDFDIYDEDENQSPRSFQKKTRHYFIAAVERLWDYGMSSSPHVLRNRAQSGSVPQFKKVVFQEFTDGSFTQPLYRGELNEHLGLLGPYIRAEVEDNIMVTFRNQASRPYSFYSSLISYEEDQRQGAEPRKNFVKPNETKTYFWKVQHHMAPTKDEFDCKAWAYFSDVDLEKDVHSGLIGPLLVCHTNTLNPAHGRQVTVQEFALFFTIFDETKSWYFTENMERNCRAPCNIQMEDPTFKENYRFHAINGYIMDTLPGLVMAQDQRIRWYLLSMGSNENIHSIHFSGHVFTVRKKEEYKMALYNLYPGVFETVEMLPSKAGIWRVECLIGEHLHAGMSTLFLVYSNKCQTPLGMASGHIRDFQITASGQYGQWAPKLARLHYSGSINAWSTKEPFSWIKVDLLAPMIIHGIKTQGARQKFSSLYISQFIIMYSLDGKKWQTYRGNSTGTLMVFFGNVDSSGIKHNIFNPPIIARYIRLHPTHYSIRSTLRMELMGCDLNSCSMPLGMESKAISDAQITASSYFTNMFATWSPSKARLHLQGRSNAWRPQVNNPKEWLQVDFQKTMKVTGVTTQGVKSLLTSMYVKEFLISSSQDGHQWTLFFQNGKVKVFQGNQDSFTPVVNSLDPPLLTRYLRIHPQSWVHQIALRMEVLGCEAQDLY
T1 sequence (P00451 1668-2351 limits assumed): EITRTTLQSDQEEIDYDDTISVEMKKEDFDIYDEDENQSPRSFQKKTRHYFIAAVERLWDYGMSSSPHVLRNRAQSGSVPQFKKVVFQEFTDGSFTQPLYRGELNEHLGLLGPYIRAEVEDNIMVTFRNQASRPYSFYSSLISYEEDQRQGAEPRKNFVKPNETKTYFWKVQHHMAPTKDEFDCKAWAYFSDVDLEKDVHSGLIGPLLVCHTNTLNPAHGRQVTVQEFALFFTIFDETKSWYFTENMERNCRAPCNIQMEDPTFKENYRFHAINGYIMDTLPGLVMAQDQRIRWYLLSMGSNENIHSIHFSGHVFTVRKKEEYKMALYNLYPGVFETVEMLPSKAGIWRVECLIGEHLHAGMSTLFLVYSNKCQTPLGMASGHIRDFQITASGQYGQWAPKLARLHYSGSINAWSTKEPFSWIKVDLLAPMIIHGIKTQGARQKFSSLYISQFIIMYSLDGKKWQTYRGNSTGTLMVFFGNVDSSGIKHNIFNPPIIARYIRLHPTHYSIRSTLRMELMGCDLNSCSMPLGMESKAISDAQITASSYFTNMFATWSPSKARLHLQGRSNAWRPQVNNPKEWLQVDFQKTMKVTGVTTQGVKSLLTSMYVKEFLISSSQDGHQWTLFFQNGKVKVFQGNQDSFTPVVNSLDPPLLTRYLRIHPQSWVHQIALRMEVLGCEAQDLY

Row | Substance | 0.5M CaCl2 ng (rFVIII [1]) | 0.5M CaCl2 % total (rFVIII [1]) | 2% acetic acid % total (rFVIII [1]) | 2% acetic acid ng (rFVIII [1]) | Flow through % total (rFVIII [1]) | Total ng (rFVIII [1]) | Flow through ng (rFVIII [1]) | ELISA results % total (rFVIII [1]) | 0.5M CaCl2 IU (rFVIII [2]) | 2% acetic acid % total (rFVIII [2]) | 2% acetic acid IU (rFVIII [2]) | Flow through % total (rFVIII [2]) | Total IU (rFVIII [2]) | 0.5M CaCl2 % total (rFVIII [2]) | Flow through IU (rFVIII [2]) | Activity results % total (rFVIII [2]) | Total dpm (rFVIII [3]) | 0.5M CaCl2 % total (rFVIII [3]) | 2% acetic acid % total (rFVIII [3]) | 2% acetic acid dpm (rFVIII [3]) | further results
1 | 2 (RNPPNN) [compound 2] | 5745 ng | 92% | 0% | 31 ng | 7% | 6245 ng | 447 ng | 92% | 51.6 IU | 1% | 0.5 IU | 1% | 54.3 IU | 95% | 0.4 IU | 95% | 2767 dpm | 86% | 12% | 322 dpm | 0.5M CaCl2 dpm (rFVIII [3]): 2366 dpm; beads % total (rFVIII [3]): 3%; beads dpm (rFVIII [3]): 79 dpm
2 | 5 (LNWKYG) [compound 5] | 5530 ng | 97% | 2% | 125 ng | 0% | 5680 ng | 25 ng | 97% | 36.3 IU | 3% | 1.2 IU | 0% | 37.8 IU | 96% | 0.0 IU | 96% | 4091 dpm | 86% | 10% | 430 dpm | 0.5M CaCl2 dpm (rFVIII [3]): 3519 dpm; beads % total (rFVIII [3]): 3%; beads dpm (rFVIII [3]): 143 dpm

From patent publication US6191256A, “Recombinant factor VIII binding peptides” (Bayer Corporation, priority 1998, dated 2001)
